Assay: yeast display, Sf9 membrane polyspecificity reagent, FACS + sequencing; frameworks hold sequencing errors
Method in brief: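 Synthetic nanobody libraries on Saccharomyces cerevisiae BJ5465 were galactose-induced for 36–48 hours, stained 1 hour at 4 °C with 10% biotinylated, detergent-solubilized Sf9 membrane reagent and enriched on streptavidin microbeads. FACS then separated cells into low and high (top ~1%) gates by anti-HA (expression) and streptavidin (reagent binding) fluorescence. Genes were colony-PCR amplified, MiSeq 2 × 250 sequenced and CDR-length filtered. A clone's polyreactivity label is that of its gate of origin.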

In the case of “QVQLVESGGGLVQAGGSLRLSCAASGRTFYINAMGWYRQAPRKERELVAAITSVGSTNYADSVKGRFTISRDNAKNNVYIQMNSLKPEDTAVYYCAAESTEGTSGDYDYWGQGTQVTVSS”, the “polyreactivity (PSR sort gate)” value is reported as “low polyreactivity”.

In the case of “QVQLVESGGGLVQAGGSLRLSCAASGRTFYIYAMGWYRQAPGKERELVAAINSGGSTYYADSVKGRFTISRDNAKNTVYLQMNSLKPEDTAVYYCAATKGYYFFGDRDYWGQGTQVTVSS”, the “polyreactivity (PSR sort gate)” value is reported as “low polyreactivity”.

For “QVQLVESGGGLVQAGGSLRLSCAASGRTFYIYAMGWYRQAPGKERELVAAISWGSGSTYYADSVKGRFTISRDNAKNTVYLQMNSLKPEDTAVYYCAAEYAYPSEWTYDYWRQGTQVTVSS”, the “polyreactivity (PSR sort gate)” value was “low polyreactivity”.

With “QVQLVESGGGLVQAGGSLRLSCAASGRTFYIYAMGWYRQAPGKERELVAAITYGGGRTFYADSVKGRFTISRDYAKTTVYLQMISLKPEDTAVYYCAATDRGKRSTYDYWGQGTQVTVSS” the “polyreactivity (PSR sort gate)” value was “high polyreactivity”.

In the case of “QVQLVESGGGLVQAGGSLRLSCAASGRTFYIYAMGWYRQAPGKERELVASINWSTGRTYYADSVKGRFTISRDNAKNTVYLQMNSLKPEDTAVYYCATDGDYYYISQGRRGYRYNYWGQGTQVTVSS”, the “polyreactivity (PSR sort gate)” value is reported as “high polyreactivity”.

In the case of “QVQLVESGGGLVQAGGSLRLSCAASGRTFYIYARGWYRKAPGKERELVAAITYGGGRTFYADSVKGRFTISRDNAKYTVYLQMNSLKPEDNAVYYCAATVRGKRSTYDYWGQGTQVTVSS”, the “polyreactivity (PSR sort gate)” value is reported as “high polyreactivity”.

For “QVQLVESGGGLVQAGGSLRLSCAASGRTFYIYTRGWYRQAPGKERELVAAISSSGDSTYYADSVKGRFTISRDNAKNTVYLQMNSLKPEDTAVYYCAAYPTYPDEYWGQGTQVTVSS”, the “polyreactivity (PSR sort gate)” value was “low polyreactivity”.

With “QVQLVESGGGLVQAGGSLRLSCAASGRTFYKNAIGWYRQAPGKERELVAAITATYYADSVKGRFTISRDNAKNTVYLQMNSLKPEDTAVYYCNAYLYPKQPLSPPYPTFEGGYCGQGTQVTVSS” the “polyreactivity (PSR sort gate)” value was “low polyreactivity”.

With “QVQLVESGGGLVQAGGSLRLSCAASGRTFYKNAMGWYRQEPGTERELVAAISSRGGRTTYADSVKGRFTISRDNAKNTVYLQMISLKPEDTAVYYCAADWAQVYHGTPKYYYWGQGTQVTVSS” the “polyreactivity (PSR sort gate)” value was “high polyreactivity”.

In the case of “QVQLVESGGGLVQAGGSLRLSCAASGRTFYKYAMGWYRQAPAKESELVAAISTRGTNTYYADSVKGRFTISRDYAKNTVYLQMKSLKPEDTAVYYCAAVTASPYSHDYWGQGTQVTVSS”, the “polyreactivity (PSR sort gate)” value is reported as “high polyreactivity”.

In the case of “QVQLVESGGGLVQAGGSLRLSCAASGRTFYKYAMGWYRQAPGKERELVAVINWSGGRTYADSVKGRFTISRDNAKNTVYLQMNSLKPEDTAVYYCNAESYEFHRAWGDYDYWGQGTQVTVSS”, the “polyreactivity (PSR sort gate)” value is reported as “low polyreactivity”.

With “QVQLVESGGGLVQAGGSLRLSCAASGRTFYKYAMGWYRQAPWKERELVAAISSDGTTYYADSVKGRFTISRDNAKNTVYLQMNSLKPEDTAVYYCAKDRKYADNDYWGQGTQVTVSS” the “polyreactivity (PSR sort gate)” value was “low polyreactivity”.

For “QVQLVESGGGLVQAGGSLRLSCAASGRTFYLNAMGWYRQAPGKERELVATISYTGDTTYYADSVKGRFTISGDNALNTVYLQMNSLKPEDTAVYYCAALPSRPRGYDYWGQGTQVTVSS”, the “polyreactivity (PSR sort gate)” value was “high polyreactivity”.

For “QVQLVESGGGLVQAGGSLRLSCAASGRTFYLYAMGWYRPAPGKERELVAAITWRGGSTYYADSVKGRFTISRDNAKNTVYLQMNSLKPEDTAVYYCAAVTFFYYSAVRYEYYYWGQGTQVTVSS”, the “polyreactivity (PSR sort gate)” value was “high polyreactivity”.

With “QVQLVESGGGLVQAGGSLRLSCAASGRTFYLYAMGWYRQAPGKERELVAAITWRGGSTYYADSVKGRFTISRDNAKNTVYLQMNSLKPEDTAVYYCAAVTFFYYSAVRYEYYYWGQGTQVTVSS” the “polyreactivity (PSR sort gate)” value was “high polyreactivity”.

In the case of “QVQLVESGGGLVQAGGSLRLSCAASGRTFYLYAMGWYRQAPGKERELVADISWDGDSTYYADSVKGRFTISRDNAKNTVYLQMNSLKPEDTAVYYCAADYFYYYEQYLWYTYDYWGQGTQVTVSS”, the “polyreactivity (PSR sort gate)” value is reported as “high polyreactivity”.

In the case of “QVQLVESGGGLVQAGGSLRLSCAASGRTFYLYTMGSSRQAPGKERELVAAITGGGRTYYADSVKGRFTISRDNAKNTVYLQMNSLKPEDTAVYYCNADYAYYSYDYWGQGTQVTVSS”, the “polyreactivity (PSR sort gate)” value is reported as “low polyreactivity”.

In the case of “QVQLVESGGGLVQAGGSLRLSCAASGRTFYLYTMGWYRQAPGKVSELVATISDGGGGTYYADSVKGRFTISRDNAKNTVYLQMNRLKPEDTAVYYCSADPIDVRDVPIPHVDFDYWGQGTQVTVSS”, the “polyreactivity (PSR sort gate)” value is reported as “low polyreactivity”.

With “QVQLVESGGGLVQAGGSLRLSCAASGRTFYLYTMGWYRQAPWKERELVAGISWSGGSTYADSVKGRFTLSRDNAKNTVYLQMNSLKPEDTAVYYFNADDVRGLFYYWGQGTQVTVSS” the “polyreactivity (PSR sort gate)” value was “low polyreactivity”.

With “QVQLVESGGGLVQAGGSLRLSCAASGRTFYNAMGWYRPAPGKERELVAAITTGGGTKYADSVKGRCTISRDNAKNTVYLQMNSLKPEDTAVYYCNTDEWYHFYHGAHKYDYWGQGTQVTVSS” the “polyreactivity (PSR sort gate)” value was “low polyreactivity”.

With “QVQLVESGGGLVQAGGSLRLSCAASGRTFYNAMGWYRQAPGKERELVAAISASGARTYYADSVKGRFTISRDNAKNTVYLQMNSLKPEDTAVYYCATKSQRYARDYWGQGTQVTVSS” the “polyreactivity (PSR sort gate)” value was “high polyreactivity”.

For “QVQLVESGGGLVQAGGSLRLSCAASGRTFYNAMGWYRQAPGKERQLVAAITTGGGTKYADSVKGRFTISRDNAKNTVYLEMNSLKPEDTAVYYCNTDEWNHFYHGAHKYDYWGQGTQVTVSS”, the “polyreactivity (PSR sort gate)” value was “low polyreactivity”.

For “QVQLVESGGGLVQAGGSLRLSCAASGRTFYNNAMGWYRQAPGKERELVAAISQRTGRTYYADSVKGRFTISRDNAKNTVYLQMNSLKPEDTAVYYCNKVAYYSRRMDYWGQGTQVTVSS”, the “polyreactivity (PSR sort gate)” value was “high polyreactivity”.

For “QVQLVESGGGLVQAGGSLRLSCAASGRTFYNYAMGWYRQAPGKERELVAAITRGGSTYYADSVKGRFTISRDNAKNTVYLQMNSLKPEDTAVYYCNAVFPYEHEEYDYWGQGTQVTVSS”, the “polyreactivity (PSR sort gate)” value was “high polyreactivity”.

With “QVQLVESGGGLVQAGGSLRLSCAASGRTFYNYAMGWYRQAPGKERELVAAITRGGSTYYADSVKGRFTISRDNAQNTVYLQMNSLKPEDTAVYYCNAKYIKGRDWGQGTQVTVSS” the “polyreactivity (PSR sort gate)” value was “high polyreactivity”.

For “QVQLVESGGGLVQAGGSLRLSCAASGRTFYNYAMGWYRQAPGKERELVATITGRGGRTFYAHSVKGRFTISRDNAKNTVYLQMNSLTPEDTAVYYCAAYGSASPYYTLYVEHDYWGQGTQVTVSS”, the “polyreactivity (PSR sort gate)” value was “low polyreactivity”.

In the case of “QVQLVESGGGLVQAGGSLRLSCAASGRTFYPNAMGWYRQAPGKEREFVARISDSGGYTYYADSVKGRFTISRDNAKNTVYLQMNSLKPEDTAVYYCAADYGDPRVNEYDYWGQGTQVTVSS”, the “polyreactivity (PSR sort gate)” value is reported as “low polyreactivity”.

In the case of “QVQLVESGGGLVQAGGSLRLSCAASGRTFYPNAMGWYRQAPGKERELVAAISYSGGSTYYADSVKGRFTISRDNAKNTVYLQMNSLKPEDTAVYYCAAEFSLDKRDYWGQGTQVTVSS”, the “polyreactivity (PSR sort gate)” value is reported as “low polyreactivity”.

With “QVQLVESGGGLVQAGGSLRLSCAASGRTFYPNAMGWYRQAPRKERELVADITYSGASTYYADSVKGRFTISRDNAKNSVFLQMNSLKPEDTAVYYCNADESGVLVYVPYDYLGQGTQVTVSS” the “polyreactivity (PSR sort gate)” value was “low polyreactivity”.

In the case of “QVQLVESGGGLVQAGGSLRLSCAASGRTFYPNVMGWYRQAPGKERELVAAISISGGSTRYADSVKGRFTISRDNAKNTVYLQMNSLKPEDTAVYYCAAGYIYWYYSYDYWGQGTQVTVSS”, the “polyreactivity (PSR sort gate)” value is reported as “high polyreactivity”.

For “QVQLVESGGGLVQAGGSLRLSCAASGRTFYPYAMGWYIQAPGKEREFVATITWSGTTTYYADSVKGSFTISRDNAKNTFYLQMNSLKPVDTAVYYCAADVWEVVTPYGTIDDDYWGQGTQVTVSS”, the “polyreactivity (PSR sort gate)” value was “high polyreactivity”.

For “QVQLVESGGGLVQAGGSLRLSCAASGRTFYPYAMGWYRPAPGKERELVAAIRWSGGSTYYADSVKGRFTISRDNAKNTVYLQMNSLKPEDTAVYYCNADWKSYRGPKFDYWGQGTQVTVSS”, the “polyreactivity (PSR sort gate)” value was “low polyreactivity”.
